Reference: US20260008847A1 (ELPISCIENCE SUZHOU BIOPHARMA, published 2026)

Legend:
[1] = target: Cell membrane human LILRB2 on human primary monocytes from healthy donors (human, UniProt Q8N423 22-597); assay: cell-based or functional assay
[2] = target: T1, 6×His-tagged human LILRB2 ECD recombinant protein (human, UniProt Q8N423 22-458, limits assumed); assay: Octet, 1:1 model
T1 construct: Bought protein; not shown: 6×His-tag

[3] = target: T1, 6×His-tagged human LILRB2 ECD …; assay: Octet, 1:1 model; column printed as 'kd (1/s)', heads of c4 and c5 are swapped

Sequence of Cell membrane human LILRB2 on human primary monocytes from healthy donors (Q8N423 22-597): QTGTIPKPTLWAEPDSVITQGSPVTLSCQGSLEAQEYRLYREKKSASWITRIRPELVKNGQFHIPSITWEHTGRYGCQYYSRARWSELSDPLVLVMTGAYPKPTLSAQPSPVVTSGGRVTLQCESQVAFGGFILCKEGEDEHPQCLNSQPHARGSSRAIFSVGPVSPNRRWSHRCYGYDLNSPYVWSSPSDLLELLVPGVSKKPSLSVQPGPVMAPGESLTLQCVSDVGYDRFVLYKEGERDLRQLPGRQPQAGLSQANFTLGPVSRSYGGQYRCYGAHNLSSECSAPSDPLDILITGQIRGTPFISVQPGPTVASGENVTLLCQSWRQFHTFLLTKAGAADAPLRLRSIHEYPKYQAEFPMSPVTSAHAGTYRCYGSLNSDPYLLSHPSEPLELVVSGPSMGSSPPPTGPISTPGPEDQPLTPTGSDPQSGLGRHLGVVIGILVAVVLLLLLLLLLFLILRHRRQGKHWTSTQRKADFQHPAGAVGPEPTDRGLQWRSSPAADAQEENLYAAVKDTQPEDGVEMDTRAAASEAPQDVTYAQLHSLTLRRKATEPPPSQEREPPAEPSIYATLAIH
T1 sequence (Q8N423 22-458 limits assumed): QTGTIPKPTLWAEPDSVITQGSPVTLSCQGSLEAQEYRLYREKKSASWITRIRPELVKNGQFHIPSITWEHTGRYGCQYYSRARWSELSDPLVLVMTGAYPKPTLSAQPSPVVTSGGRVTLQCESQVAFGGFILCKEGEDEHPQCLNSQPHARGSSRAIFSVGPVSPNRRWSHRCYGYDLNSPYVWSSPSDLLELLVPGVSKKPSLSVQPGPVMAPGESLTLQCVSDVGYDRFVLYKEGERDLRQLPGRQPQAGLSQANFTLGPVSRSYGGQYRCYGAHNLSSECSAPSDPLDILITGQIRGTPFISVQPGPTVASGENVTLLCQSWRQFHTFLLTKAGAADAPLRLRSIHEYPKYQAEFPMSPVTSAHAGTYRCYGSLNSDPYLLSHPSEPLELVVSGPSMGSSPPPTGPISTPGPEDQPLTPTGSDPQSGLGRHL

Relative cytokine/chemokine level, B7-H1/PD-L1 (M2-T coculture 1:1, Luminex) [1]: 1.8 fold of Medium
Relative cytokine/chemokine level, CCL3/MIP-1 alpha (M2-T coculture 1:1, Luminex) [1]: 1.3 fold of Medium
Relative cytokine/chemokine level, CCL4/MIP-1 beta (M2-T coculture 1:1, Luminex) [1]: 2.4 fold of Medium
Relative cytokine/chemokine level, CCL5/RANTES (M2-T coculture 1:1, Luminex) [1]: 3.8 fold of Medium
Relative cytokine/chemokine level, CCL19/MIP-3 beta (M2-T coculture 1:1, Luminex) [1]: 0.3 fold of Medium
Relative cytokine/chemokine level, CCL20/MIP-3 alpha (M2-T coculture 1:1, Luminex) [1]: 2.2 fold of Medium
Relative cytokine/chemokine level, CXCL2/GRO beta (M2-T coculture 1:1, Luminex) [1]: 0.4 fold of Medium
Relative cytokine/chemokine level, FGF-basic (M2-T coculture 1:1, Luminex) [1]: 1.3 fold of Medium
Relative cytokine/chemokine level, G-CSF (M2-T coculture 1:1, Luminex) [1]: 2.3 fold of Medium
Relative cytokine/chemokine level, GM-CSF (M2-T coculture 1:1, Luminex) [1]: 1.6 fold of Medium
Relative cytokine/chemokine level, Granzyme B (M2-T coculture 1:1, Luminex) [1]: 7.6 fold of Medium
Relative cytokine/chemokine level, IFN-alpha (M2-T coculture 1:1, Luminex) [1]: 2.2 fold of Medium
Relative cytokine/chemokine level, IFN-gamma (M2-T coculture 1:1, Luminex) [1]: 4.1 fold of Medium
Relative cytokine/chemokine level, IL-1beta/IL-1F2 (M2-T coculture 1:1, Luminex) [1]: 1.9 fold of Medium
Relative cytokine/chemokine level, IL-2 (M2-T coculture 1:1, Luminex) [1]: 17.8 fold of Medium
Relative cytokine/chemokine level, IL-3 (M2-T coculture 1:1, Luminex) [1]: 3.6 fold of Medium
Relative cytokine/chemokine level, IL-4 (M2-T coculture 1:1, Luminex) [1]: 1.6 fold of Medium
Relative cytokine/chemokine level, IL-5 (M2-T coculture 1:1, Luminex) [1]: 2.3 fold of Medium
Relative cytokine/chemokine level, IL-6 (M2-T coculture 1:1, Luminex) [1]: 0.2 fold of Medium
Relative cytokine/chemokine level, IL-13 (M2-T coculture 1:1, Luminex) [1]: 1.8 fold of Medium
Relative cytokine/chemokine level, IL-15 (M2-T coculture 1:1, Luminex) [1]: 1.8 fold of Medium
Relative cytokine/chemokine level, PDGF-AA (M2-T coculture 1:1, Luminex) [1]: 4.3 fold of Medium
Relative cytokine/chemokine level, PDGF-AB/BB (M2-T coculture 1:1, Luminex) [1]: 1.5 fold of Medium
Relative cytokine/chemokine level, TGF-alpha (M2-T coculture 1:1, Luminex) [1]: 3.2 fold of Medium
Relative cytokine/chemokine level, TNF-alpha (M2-T coculture 1:1, Luminex) [1]: 4.8 fold of Medium
Relative cytokine/chemokine level, VEGF (M2-T coculture 1:1, Luminex) [1]: 0.3 fold of Medium
Kd [2]: 2.4 nM
kon [3]: 494000 M⁻¹ s⁻¹
B1: 043c (antibody, V domains shown)
VH: QVQLQQSGAELAKPGASVKLSCKASGYTFTSYWMYWVKQRPGQGLEWIGHINPSSGYTKYNQKFKDKATLTADKSSSTAYMQLSSLTYEDSAVYYCARDPNWDNYWGQGTTLTVSS
VL: DIVMTQSHKFMSTSVGDRVSITCKASQDVSIAVAWYQQKPGQSPKLLIYSASYRYTGVPDRFTGSGSGTDFTFTISSVQAEDLAVYYCQQHYSTPYTFGGGTKLEIK
notes: Human IgG4 chimeric antibody with S228P mutation at the Fc region; also called chimeric antibody 043c; parental antibody 043c
